Test results: paper PMC4294777

Target: Klp5-3FLAG (fission yeast) (UniProt O14343)
Assay: co-IP; protein extracts (4 mg or 8 mg) of metaphase-arrested cut9-665 cells (36°C, 2.5 hours) added to protein A Dynabeads coated with anti-Flag antibodies; blotted with anti-Flag and anti-Myc

Sequence of UniProt O14343 (O14343 whole entry): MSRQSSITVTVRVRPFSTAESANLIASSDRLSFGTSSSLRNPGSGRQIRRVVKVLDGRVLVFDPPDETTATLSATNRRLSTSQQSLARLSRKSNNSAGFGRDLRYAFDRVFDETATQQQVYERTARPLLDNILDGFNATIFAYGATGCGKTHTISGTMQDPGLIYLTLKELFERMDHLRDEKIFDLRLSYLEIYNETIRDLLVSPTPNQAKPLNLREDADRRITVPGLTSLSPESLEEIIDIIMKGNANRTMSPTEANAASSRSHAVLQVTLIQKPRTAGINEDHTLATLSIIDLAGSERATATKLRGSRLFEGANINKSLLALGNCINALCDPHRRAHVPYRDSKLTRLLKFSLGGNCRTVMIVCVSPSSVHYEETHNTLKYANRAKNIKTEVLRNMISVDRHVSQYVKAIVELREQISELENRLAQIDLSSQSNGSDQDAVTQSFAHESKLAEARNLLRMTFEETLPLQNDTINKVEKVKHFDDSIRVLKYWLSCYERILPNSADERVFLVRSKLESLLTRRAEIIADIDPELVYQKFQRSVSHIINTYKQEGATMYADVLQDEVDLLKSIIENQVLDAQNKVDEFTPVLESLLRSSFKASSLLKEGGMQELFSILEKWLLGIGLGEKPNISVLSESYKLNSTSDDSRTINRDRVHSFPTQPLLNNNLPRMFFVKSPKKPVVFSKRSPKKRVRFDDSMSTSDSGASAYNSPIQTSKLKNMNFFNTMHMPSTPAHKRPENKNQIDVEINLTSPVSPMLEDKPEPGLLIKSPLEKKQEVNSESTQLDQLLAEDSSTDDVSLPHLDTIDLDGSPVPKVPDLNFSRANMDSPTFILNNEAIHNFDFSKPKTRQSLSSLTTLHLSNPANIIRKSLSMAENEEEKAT

reduction of binding compared to Alp7: > 70%
Substance: Alp7-LA6-Myc (from UniProt Q9URY2 1-474) (natural protein)
